A word on the IC50: it is the concentration that inhibits the measured activity by half. A higher IC50 goes with a need for much substance.

Test [1] deals with human OT7T175 (metastin receptor) (human) (UniProt Q969F8). Description: cell-based or functional assay.
The target of test [2] is T1, human OT7T175 (metastin receptor) (human, UniProt Q969F8 1-398).
T1 construct: expressed on CHO cells (hOT7T175-expressed CHO cells; hOT7T175/CHO); also called hOT7T175; h0T7T175
Description: FMAT competition with Cy-5-labeled metastin (40-54), hOT7T175-expressed CHO cells.

The target of test [3] is T1, human OT7T175 (metastin receptor). Put plainly: cell-based or functional assay.

Square brackets hold non-standard residues; d marks the D form. Ends that are not written are not given here. * marks the point of attachment. Propanoyl(3-indol-3-yl) = O=C(CCc1c[nH]c2ccccc12)*; Phe(F5) = N[C@@H](Cc1c(F)c(F)c(F)c(F)c1F)C(=O)O; Propanoyl(3-(3-pyridyl)) = O=C(CCc1cccnc1)*; Arg(Me) = CNC(=N)NCCC[C@H](N)C(=O)O; d4Pal = N[C@H](Cc1ccncc1)C(=O)O; Cha = N[C@@H](CC1CCCCC1)C(=O)O; azaGly = NNC(=O)O

Sequence of human OT7T175 (metastin receptor) (human) (Q969F8 whole entry L364H): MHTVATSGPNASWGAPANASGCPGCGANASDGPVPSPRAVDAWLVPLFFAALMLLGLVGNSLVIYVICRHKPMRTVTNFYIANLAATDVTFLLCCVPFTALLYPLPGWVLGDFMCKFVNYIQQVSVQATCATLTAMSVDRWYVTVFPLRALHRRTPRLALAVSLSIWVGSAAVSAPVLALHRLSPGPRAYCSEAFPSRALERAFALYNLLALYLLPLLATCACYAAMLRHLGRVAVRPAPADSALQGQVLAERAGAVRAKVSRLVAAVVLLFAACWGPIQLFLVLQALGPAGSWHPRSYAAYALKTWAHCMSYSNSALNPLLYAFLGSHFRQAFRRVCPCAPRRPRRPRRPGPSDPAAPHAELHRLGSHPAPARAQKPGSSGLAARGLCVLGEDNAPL
T1 sequence (Q969F8 whole entry L364H): as above

B1: Compound No. 315: des(1)-[D-Asn2,Cha3,AzaGly7,Arg(Me)9]MS10 (peptide)
peptide: [dN][Cha]NSF[azaGly]L[Arg(Me)]F-NH2
modifications: N-terminus assumed
SMILES: CNC(=N)NCCC[C@H](NC(=O)[C@H](CC(C)C)NC(=O)NNC(=O)[C@H](Cc1ccccc1)NC(=O)[C@H](CO)NC(=O)[C@H](CC(N)=O)NC(=O)[C@H](CC1CCCCC1)NC(=O)[C@H](N)CC(N)=O)C(=O)N[C@@H](Cc1ccccc1)C(N)=O
With B1, the intracellular Ca ion level-increasing activity (FLIPR) (specific activity to metastin (1-54)) in test [1] was 1.

B2: Compound No. 387: Dap-[D-Tyr1,Arg(Me)9]MS10 (peptide)
peptide: XYNWNSFGLRF
modifications: N-terminal Dap added before position 1; D-Tyr1; Arg(Me)9 (MS10 numbering); C-terminal amide
In turn, B2 had an intracellular Ca ion level-increasing activity (FLIPR) (specific activity to metastin (1-54)) in test [1] of 1.

B3: Compound No. 397: Methylthiocarbamoyl-Sar-[D-Tyr1,Arg(Me)9]MS10 (peptide)
peptide: GYNWNSFGLRF
modifications: N-terminal Methylthiocarbamoyl-Sar added before position 1; D-Tyr1; Arg(Me)9 (MS10 numbering); C-terminal amide
In test [1], B3 returned an intracellular Ca ion level-increasing activity (FLIPR) (specific activity to metastin (1-54)) of 5.

B4: Compound No. 114: des(1-3)-3-(3-Indolyl)propionyl-MS10 (peptide)
peptide: {Propanoyl(3-indol-3-yl)}-NSFGLRF-NH2
SMILES: CC(C)C[C@H](NC(=O)CNC(=O)[C@H](Cc1ccccc1)NC(=O)[C@H](CO)NC(=O)[C@H](CC(N)=O)NC(=O)CCc1c[nH]c2ccccc12)C(=O)N[C@@H](CCCNC(=N)N)C(=O)N[C@@H](Cc1ccccc1)C(N)=O
In turn, B4 registered an IC50 in test [2] of 550 nM. Also, the “intracellular Ca ion level-increasing activity (FLIPR)” value in test [3] is 3 specific activity to metastin (1-54). In the same order, the values of YNWNSFGLR[Phe(F5)]-NH2 [Compound No. 111: [Phe(F5)10]MS10] are 140 nM and 3 specific activity to metastin (1-54).

B5: Compound No. 375: 2-Aminoethyl-Gly-[D-Tyr1,Arg(Me)9]MS10 (peptide)
peptide: {2‑aminoethyl}-G[dY]NWNSFGL[Arg(Me)]F-NH2
modifications: not fully specified (residue 1); printed as 2-Aminoethyl-Gly-[D-Tyr1,Arg(Me)9]MS10
In the case of B5, the intracellular Ca ion level-increasing activity (FLIPR) (specific activity to metastin (1-54)) in test [1] was found to be 2.

B6: Compound No. 385: des(1)-[D-Tyr2,D-Pya(4) 3,AzaGly7,Arg(Me)9,Trp10]MS10 (peptide)
peptide: [dY][d4Pal]NSF[azaGly]L[Arg(Me)]W-NH2
modifications: N-terminus assumed
SMILES: CNC(=N)NCCC[C@H](NC(=O)[C@H](CC(C)C)NC(=O)NNC(=O)[C@H](Cc1ccccc1)NC(=O)[C@H](CO)NC(=O)[C@H](CC(N)=O)NC(=O)[C@@H](Cc1ccncc1)NC(=O)[C@H](N)Cc1ccc(O)cc1)C(=O)N[C@@H](Cc1c[nH]c2ccccc12)C(N)=O
As for B6, the intracellular Ca ion level-increasing activity (FLIPR) (specific activity to metastin (1-54)) in test [1] was found to be 10.

YNWNSFGARF-NH2 [Compound No. 45: [Ala8]MS10] yielded an intracellular Ca ion level-increasing activity (FLIPR) (specific activity to metastin (1-54)) in test [1] of 1.

B7: Compound No. 274: des(1-2)-Acetyl-[Ala3,AzaGly7,Arg(Me)9]MS10 (peptide)
peptide: Ac-ANSF[azaGly]L[Arg(Me)]F-NH2
SMILES: CNC(=N)NCCC[C@H](NC(=O)[C@H](CC(C)C)NC(=O)NNC(=O)[C@H](Cc1ccccc1)NC(=O)[C@H](CO)NC(=O)[C@H](CC(N)=O)NC(=O)[C@H](C)NC(C)=O)C(=O)N[C@@H](Cc1ccccc1)C(N)=O
Molecule B7 yielded an intracellular Ca ion level-increasing activity (FLIPR) (specific activity to metastin (1-54)) in test [1] of 1. YNWNSFGLRX (Cha10; C-terminal amide) [Compound No. 112: [Cha10]MS10]: in test [2], the 50% inhibitory concentration (IC50) is 370 nM. In addition, the “intracellular Ca ion level-increasing activity (FLIPR)” value in test [3] is 2 specific activity to metastin (1-54).

B8: Compound No. 386: des(1-3)-3-Pyridylpropionyl-[AzaGly7,Arg(Me)9,Trp10]MS10 (peptide)
peptide: {Propanoyl(3-(3-pyridyl))}-NSF[azaGly]L[Arg(Me)]W-NH2
SMILES: CNC(=N)NCCC[C@H](NC(=O)[C@H](CC(C)C)NC(=O)NNC(=O)[C@H](Cc1ccccc1)NC(=O)[C@H](CO)NC(=O)[C@H](CC(N)=O)NC(=O)CCc1cccnc1)C(=O)N[C@@H](Cc1c[nH]c2ccccc12)C(N)=O
For the molecule B8, the intracellular Ca ion level-increasing activity (FLIPR) (specific activity to metastin (1-54)) in test [1] was 7. Consider LPNYNWNSFGLRF-NH2 [Compound No. 32: Leu-Pro-Asn-MS10], for which the IC50 in test [2] was found to be 25 nM. For the same molecule, the “intracellular Ca ion level-increasing activity (FLIPR)” value in test [3] was 10 specific activity to metastin (1-54).

Values taken from US20060241051A1 (Takeda / Millennium, published 2006).
